Data as given in US20100029702A1, “Method For Identification of Compound Having Anti-Anxiety Effect” (priority 2006, published 2010).

Target: T1, ph01207 gene product (Homo sapiens, UniProt O60241, DEL308-362)
T1 construct: oocytes expressing the gene (ph01207 cDNA clones); expressed in transfected cells; host or cells: Xenopus laevis oocytes
T1 sequence (O60241 with tags, fused parts or gaps DEL308-362): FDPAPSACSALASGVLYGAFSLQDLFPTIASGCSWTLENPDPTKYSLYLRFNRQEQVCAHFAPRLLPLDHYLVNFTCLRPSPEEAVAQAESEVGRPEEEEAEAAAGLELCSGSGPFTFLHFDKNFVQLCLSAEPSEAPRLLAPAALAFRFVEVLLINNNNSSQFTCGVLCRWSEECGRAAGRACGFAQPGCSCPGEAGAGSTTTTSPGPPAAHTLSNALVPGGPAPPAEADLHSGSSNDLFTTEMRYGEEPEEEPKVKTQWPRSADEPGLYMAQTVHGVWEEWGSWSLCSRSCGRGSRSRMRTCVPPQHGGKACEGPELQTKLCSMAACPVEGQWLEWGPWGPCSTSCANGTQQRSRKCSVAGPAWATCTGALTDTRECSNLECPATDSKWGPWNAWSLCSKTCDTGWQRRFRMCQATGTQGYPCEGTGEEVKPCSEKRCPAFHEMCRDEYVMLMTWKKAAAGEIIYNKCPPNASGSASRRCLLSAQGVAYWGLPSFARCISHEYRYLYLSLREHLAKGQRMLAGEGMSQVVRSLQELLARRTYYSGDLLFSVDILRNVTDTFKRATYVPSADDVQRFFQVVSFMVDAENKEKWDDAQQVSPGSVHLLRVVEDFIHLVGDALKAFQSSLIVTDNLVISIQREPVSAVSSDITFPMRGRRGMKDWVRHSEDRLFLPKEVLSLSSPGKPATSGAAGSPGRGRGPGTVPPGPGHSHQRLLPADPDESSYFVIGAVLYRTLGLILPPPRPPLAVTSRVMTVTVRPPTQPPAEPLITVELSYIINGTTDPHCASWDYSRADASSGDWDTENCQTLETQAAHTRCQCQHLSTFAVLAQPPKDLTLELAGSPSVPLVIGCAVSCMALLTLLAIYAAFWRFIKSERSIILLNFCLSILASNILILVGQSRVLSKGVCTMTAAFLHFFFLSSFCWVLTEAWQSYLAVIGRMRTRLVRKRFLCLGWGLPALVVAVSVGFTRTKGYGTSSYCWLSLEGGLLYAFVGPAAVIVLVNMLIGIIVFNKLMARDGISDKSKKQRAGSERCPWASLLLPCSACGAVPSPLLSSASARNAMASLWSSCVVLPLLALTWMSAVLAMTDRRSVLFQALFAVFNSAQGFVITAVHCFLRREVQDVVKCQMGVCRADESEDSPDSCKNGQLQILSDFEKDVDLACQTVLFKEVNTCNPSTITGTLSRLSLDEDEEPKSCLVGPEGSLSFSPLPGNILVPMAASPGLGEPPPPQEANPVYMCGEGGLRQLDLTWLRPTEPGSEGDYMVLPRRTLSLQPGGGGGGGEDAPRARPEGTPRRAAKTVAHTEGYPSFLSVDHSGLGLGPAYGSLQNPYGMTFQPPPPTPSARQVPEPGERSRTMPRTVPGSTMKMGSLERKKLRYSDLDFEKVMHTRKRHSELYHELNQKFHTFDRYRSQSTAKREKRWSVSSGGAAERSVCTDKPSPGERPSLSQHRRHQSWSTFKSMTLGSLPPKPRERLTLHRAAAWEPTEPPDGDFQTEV
Assay: Intracellular calcium concentration change assay with ph01207#3F8-17 strain: inhibition of the response to CCK-8S
Assay type: cell-based
Settings: 10 nM CCK-8S, wells with buffer
Excerpt: A compound that inhibits a response of the ph01207 gene product to a ligand was identified by an intracellular calcium concentration change assay system using the ph01207-expressing cell strain.
The ph01207-expressing cell strain was constructed as follows. First, a ph01207-expressing vector not containing an epitope tag was constructed by recombination between a ph01207 cDNA clone identified in Example 1 and pcDNA3.1 (Invitrogen) with Asp718I (Boehringer) and NotI (TAKARA). The ph01207-expressing vector was transfected into the CHO-K1 strain, a host cell, using Lipofectamine 2000 (Invitrogen), and the cells were screened for stably-expressing strains by a selective medium containing G418. Expression of the gene introduced into the cell was detected by the FCM analysis using an anti-ph01207 antibody.
As a result, a plurality of cell strains stably expressing ph01207 were obtained. A compound was identified using the ph01207#3F8-17 strain, a clone of these strains.
As a ligand, CCK-8S (Peptide Institute, Inc.) was used. […]
Compounds were specifically identified as follows. […] After reaction, CCK-8S (Peptide Institute, Inc.) and a compound was added, and changes over time in the fluorescence intensity in each well were measured for 80 sec. […] Changes over time in the fluorescence intensity were measured using the FLEX station (Molecular Device).

Substance: cholecystokinin octapeptide sulfated form [CCK-8S]
- Change in fluorescence intensity (intracellular Ca2+) after addition of CCK-8S: increased
